Columns and labels:
Experiment in all cases: cell_activity; CHO iGFFP reporter
LOX 3-4m.684 = target: T1, LOX 3-4m.684 (artificial (I-CreI derived))
T1 chain: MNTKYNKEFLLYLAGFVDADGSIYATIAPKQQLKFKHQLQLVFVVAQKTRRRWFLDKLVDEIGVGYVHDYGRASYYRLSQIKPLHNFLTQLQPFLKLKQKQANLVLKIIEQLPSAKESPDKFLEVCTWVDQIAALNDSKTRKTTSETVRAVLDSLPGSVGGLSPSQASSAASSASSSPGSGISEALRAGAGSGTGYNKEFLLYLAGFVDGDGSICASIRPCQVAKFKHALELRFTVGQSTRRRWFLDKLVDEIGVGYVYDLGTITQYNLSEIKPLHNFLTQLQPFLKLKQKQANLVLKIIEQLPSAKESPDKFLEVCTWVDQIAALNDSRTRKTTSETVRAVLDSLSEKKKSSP
Description: (§1) A CHO cell reporter system (see WO/2012/167192, FIG. 3) was used to determine whether the engineered meganucleases generated in these studies could recognize and cleave the modified LOX 3-4 recognition sequences in Table 87. To perform the assay, a pair of CHO cell reporter lines were produced, which carried a non-functional Green Fluorescent Protein (GFP) gene expression cassette integrated into the genome of the cell. The GFP gene in each cell line was interrupted by a pair of recognition sequences such that intracellular cleavage of either recognition sequence by a meganuclease would stimulate a homologous recombination event resulting in a functional GFP gene. In both cell lines, one of the recognition sequences was derived from the LOX 3-4 recognition sequence (i.e., those sequences disclosed in Table 87), and the second recognition sequence was specifically recognized by a control meganuclease called “CHO 23/24.” CHO reporter cells comprising a recognition sequence derived from the LOX 3-4 recognition sequence and the CHO 23/24 recognition sequence are referred to herein as “test cells.”
(§2) Novel engineered meganucleases derived from the LOX 3-4x.109 meganuclease were prepared by making amino acid substitutions at one or more positions in the first subunit and one or more positions in the second subunit. These engineered meganucleases were then evaluated for cleavage of the LOX 3-4 recognition sequence modified to have an ACAA center sequence (SEQ ID NO: 9) in the CHO reporter assay according to Example 1.

LOX 3-4m.750 = target: T2, LOX 3-4m.750 (artificial (I-CreI derived))
T2 chain: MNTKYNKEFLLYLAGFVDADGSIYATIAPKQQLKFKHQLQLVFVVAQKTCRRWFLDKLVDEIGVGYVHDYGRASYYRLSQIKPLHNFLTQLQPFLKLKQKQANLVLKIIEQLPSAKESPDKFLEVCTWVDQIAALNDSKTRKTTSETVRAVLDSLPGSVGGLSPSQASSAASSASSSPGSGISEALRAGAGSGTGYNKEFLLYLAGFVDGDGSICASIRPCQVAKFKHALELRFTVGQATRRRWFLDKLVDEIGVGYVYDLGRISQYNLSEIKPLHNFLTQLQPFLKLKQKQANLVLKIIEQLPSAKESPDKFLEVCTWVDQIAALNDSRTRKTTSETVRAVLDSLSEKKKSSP
Description: as §1, §2

LOX 3-4m.765 = target: T3, LOX 3-4m.765 (artificial (I-CreI derived))
T3 chain: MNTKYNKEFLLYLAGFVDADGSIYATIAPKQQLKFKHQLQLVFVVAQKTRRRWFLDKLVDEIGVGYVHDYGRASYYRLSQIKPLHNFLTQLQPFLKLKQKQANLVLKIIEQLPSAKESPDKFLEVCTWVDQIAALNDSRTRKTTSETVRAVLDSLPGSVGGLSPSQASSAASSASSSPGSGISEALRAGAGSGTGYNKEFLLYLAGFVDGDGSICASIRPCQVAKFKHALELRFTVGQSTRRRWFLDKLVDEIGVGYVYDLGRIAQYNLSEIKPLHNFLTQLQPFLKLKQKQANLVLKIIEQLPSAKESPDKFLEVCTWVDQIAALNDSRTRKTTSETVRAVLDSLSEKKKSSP
Description: as §1, §2

LOX 3-4m.1329 = target: T4, LOX 3-4m.1329 (artificial (I-CreI derived))
T4 chain: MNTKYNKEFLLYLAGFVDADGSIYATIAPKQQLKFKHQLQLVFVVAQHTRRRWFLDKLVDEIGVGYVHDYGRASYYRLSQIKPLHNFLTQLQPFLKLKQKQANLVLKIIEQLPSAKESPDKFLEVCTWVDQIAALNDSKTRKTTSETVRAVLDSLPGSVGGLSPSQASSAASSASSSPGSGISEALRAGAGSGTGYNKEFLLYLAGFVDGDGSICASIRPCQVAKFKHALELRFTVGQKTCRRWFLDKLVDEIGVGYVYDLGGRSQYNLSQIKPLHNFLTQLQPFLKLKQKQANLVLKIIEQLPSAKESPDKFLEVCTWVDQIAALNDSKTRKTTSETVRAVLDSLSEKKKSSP
Description: as §1
as §2, with “ATAG” for “ACAA”, “184)” for “9)”

LOX 3-4m.1415 = target: T5, LOX 3-4m.1415 (artificial (I-CreI derived))
T5 chain: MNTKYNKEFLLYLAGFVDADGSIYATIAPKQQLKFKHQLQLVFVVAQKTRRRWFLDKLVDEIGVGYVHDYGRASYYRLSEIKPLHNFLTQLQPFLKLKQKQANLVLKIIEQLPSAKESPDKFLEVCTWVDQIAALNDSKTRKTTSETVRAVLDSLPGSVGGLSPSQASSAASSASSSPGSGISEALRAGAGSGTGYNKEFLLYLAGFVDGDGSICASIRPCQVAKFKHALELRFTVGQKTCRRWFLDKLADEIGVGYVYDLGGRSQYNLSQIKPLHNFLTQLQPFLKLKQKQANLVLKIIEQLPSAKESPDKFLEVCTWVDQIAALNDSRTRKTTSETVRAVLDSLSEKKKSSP
Description: as §1
as §2, with “ATAG” for “ACAA”, “184)” for “9)”

LOX 3-4m.1353 = target: T6, LOX 3-4m.1353 (artificial (I-CreI derived))
T6 chain: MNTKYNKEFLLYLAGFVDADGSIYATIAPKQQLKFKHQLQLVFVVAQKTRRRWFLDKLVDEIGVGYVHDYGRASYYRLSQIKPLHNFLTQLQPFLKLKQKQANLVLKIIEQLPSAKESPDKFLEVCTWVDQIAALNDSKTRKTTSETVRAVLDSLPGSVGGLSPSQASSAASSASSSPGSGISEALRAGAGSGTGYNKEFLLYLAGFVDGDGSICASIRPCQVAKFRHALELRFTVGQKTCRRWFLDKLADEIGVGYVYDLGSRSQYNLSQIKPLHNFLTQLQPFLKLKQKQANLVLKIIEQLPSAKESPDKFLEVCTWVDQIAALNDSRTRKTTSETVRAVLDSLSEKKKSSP
Description: as §1
as §2, with “ATAG” for “ACAA”, “184)” for “9)”

LOX 3-4m.1345 = target: T7, LOX 3-4m.1345 (artificial (I-CreI derived))
T7 chain: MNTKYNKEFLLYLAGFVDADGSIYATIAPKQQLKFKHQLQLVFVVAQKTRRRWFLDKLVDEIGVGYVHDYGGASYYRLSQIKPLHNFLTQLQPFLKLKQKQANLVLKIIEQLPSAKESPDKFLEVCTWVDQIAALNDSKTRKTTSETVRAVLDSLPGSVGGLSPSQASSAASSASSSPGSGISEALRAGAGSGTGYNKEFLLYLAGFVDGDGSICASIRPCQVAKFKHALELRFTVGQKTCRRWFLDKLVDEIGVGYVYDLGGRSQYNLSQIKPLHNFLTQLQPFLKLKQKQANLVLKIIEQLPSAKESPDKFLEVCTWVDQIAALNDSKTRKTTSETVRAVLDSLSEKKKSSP
Description: as §1
as §2, with “ATAG” for “ACAA”, “184)” for “9)”

LOX 3-4m.1237 = target: T8, LOX 3-4m.1237 (artificial (I-CreI derived))
T8 chain: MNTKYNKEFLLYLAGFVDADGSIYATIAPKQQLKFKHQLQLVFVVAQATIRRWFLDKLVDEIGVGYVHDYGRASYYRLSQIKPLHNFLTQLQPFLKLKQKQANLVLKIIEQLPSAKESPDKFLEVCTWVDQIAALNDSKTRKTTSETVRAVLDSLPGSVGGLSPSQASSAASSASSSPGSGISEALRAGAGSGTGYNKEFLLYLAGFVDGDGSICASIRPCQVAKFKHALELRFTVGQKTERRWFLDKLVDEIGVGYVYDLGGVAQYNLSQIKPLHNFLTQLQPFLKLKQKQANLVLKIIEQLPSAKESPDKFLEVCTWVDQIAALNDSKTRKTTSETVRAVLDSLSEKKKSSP
Description: as §1
as §2, with “ATAA” for “ACAA”, “157)” for “9)”

LOX 3-4m.1236 = target: T9, LOX 3-4m.1236 (artificial (I-CreI derived))
T9 chain: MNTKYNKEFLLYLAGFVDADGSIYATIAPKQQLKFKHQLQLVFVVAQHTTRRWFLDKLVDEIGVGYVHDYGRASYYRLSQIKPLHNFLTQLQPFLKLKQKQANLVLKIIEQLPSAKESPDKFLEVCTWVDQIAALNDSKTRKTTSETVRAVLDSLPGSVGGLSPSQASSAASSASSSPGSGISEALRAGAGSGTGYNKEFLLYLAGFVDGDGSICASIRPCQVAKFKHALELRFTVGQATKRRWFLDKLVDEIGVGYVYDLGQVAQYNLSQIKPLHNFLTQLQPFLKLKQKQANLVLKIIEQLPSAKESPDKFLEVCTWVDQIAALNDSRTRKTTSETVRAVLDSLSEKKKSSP
Description: as §1
as §2, with “ATAA” for “ACAA”, “157)” for “9)”

LOX 3-4m.1293 = target: T10, LOX 3-4m.1293 (artificial (I-CreI derived))
T10 chain: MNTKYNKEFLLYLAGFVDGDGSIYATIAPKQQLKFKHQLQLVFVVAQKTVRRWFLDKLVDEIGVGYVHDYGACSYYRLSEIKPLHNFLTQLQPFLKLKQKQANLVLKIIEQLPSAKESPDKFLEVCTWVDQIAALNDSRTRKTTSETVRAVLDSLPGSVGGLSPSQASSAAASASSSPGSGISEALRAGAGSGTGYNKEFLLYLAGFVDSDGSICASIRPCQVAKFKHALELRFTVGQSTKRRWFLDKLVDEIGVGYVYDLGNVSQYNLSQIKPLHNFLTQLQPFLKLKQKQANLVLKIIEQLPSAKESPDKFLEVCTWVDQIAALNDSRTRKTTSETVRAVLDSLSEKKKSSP
Description: as §1
as §2, with “ATAA” for “ACAA”, “157)” for “9)”

LOX 3-4m.1269 = target: T11, LOX 3-4m.1269 (artificial (I-CreI derived))
T11 chain: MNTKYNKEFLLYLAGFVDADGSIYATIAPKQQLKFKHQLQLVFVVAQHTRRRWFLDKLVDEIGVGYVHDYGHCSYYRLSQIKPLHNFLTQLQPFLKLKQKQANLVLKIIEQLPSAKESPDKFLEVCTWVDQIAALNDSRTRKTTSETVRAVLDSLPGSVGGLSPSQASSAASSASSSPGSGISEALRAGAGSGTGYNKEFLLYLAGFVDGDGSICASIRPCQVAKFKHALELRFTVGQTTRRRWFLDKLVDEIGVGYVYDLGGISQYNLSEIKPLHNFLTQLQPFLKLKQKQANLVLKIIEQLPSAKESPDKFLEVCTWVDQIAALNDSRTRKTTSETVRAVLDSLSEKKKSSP
Description: as §1
as §2, with “ATAA” for “ACAA”, “157)” for “9)”

B1: LOX 3-4 ACAA (dsDNA)
DNA 1: GTATAGCATACAATATACGAAG
DNA 2: CTTCGTATATTGTATGCTATAC
activity (LOX 3-4m.684): 9.14 % GFP
activity (LOX 3-4m.750): 9.32 % GFP
activity (LOX 3-4m.765): 9.32 % GFP

B2: LOX 3-4 ATAG (dsDNA)
DNA 1: GTATAGCATATAGTATACGAAG
DNA 2: CTTCGTATACTATATGCTATAC
activity (LOX 3-4m.1329): 15.5 % GFP
activity (LOX 3-4m.1415): 13.1 % GFP
activity (LOX 3-4m.1353): 15.6 % GFP
activity (LOX 3-4m.1345): 14 % GFP

B3: LOX 3-4 ATAA (dsDNA)
DNA 1: GTATAGCATATAATATACGAAG
DNA 2: CTTCGTATATTATATGCTATAC
activity (LOX 3-4m.1237): 8.13 % GFP
activity (LOX 3-4m.1236): 9.28 % GFP
activity (LOX 3-4m.1293): 8 % GFP
activity (LOX 3-4m.1269): 8.64 % GFP

Source: patent US20220195407, “OPTIMIZATION OF ENGINEERED MEGANUCLEASES FOR RECOGNITION SEQUENCES” (Precision BioSciences, Inc., published 2022)
